What was measured:
[1] = molecular target: recombinant soluble homotrimeric HA of A/California/4/09 (H1N1) (Influenza A virus …); test: trimeric HA microarray, transfection supernatant set 3
[2] = molecular target: recombinant soluble homotrimeric HA of A/Solomon Islands/3/06 (H1N1) (Influenza A virus A/Solomon …); test: as above
[3] = molecular target: recombinant soluble homotrimeric HA of A/South Carolina/1/18 (H1N1) (Influenza A virus A/South Carolina/1/18 …); test: as above
[4] = molecular target: recombinant soluble homotrimeric HA of A/Japan/305/57 (H2N2) (Influenza A virus A/Japan/305/1957(H2N2)); test: as above
[5] = molecular target: recombinant soluble homotrimeric HA of A/Wisconsin/67/05 (H3N2) (Influenza A virus …); test: as above
[6] = molecular target: recombinant soluble homotrimeric HA of A/Vietnam/1203/04 (H5N1) (Influenza A virus …); test: as above
[7] = molecular target: recombinant soluble homotrimeric HA of A/Indonesia/5/05 (H5N1) (Influenza A virus …); test: as above
[8] = molecular target: recombinant soluble homotrimeric HA of A/Egypt/3300-NAMRU3/08 (H5N1) (Influenza A virus …); test: as above
[9] = molecular target: recombinant soluble homotrimeric HA of A/Anhui/1/05 (H5N1) (Influenza A virus A/Anhui/1/2005(H5N1)); test: as above
[10] = molecular target: recombinant soluble homotrimeric HA of A/chicken/Vietnam/NCVD-016/08 (H5N1) (Influenza A virus …); test: as above
[11] = molecular target: recombinant soluble homotrimeric HA of A/northern shoveler/California/HKWF115/07 (H6) (Influenza A virus A/northern …); test: as above
[12] = molecular target: recombinant soluble homotrimeric HA of A/Netherlands/219/03 (H7N7) (Influenza A virus …); test: as above
[13] = molecular target: recombinant soluble homotrimeric HA of A/duck/Yangzhou/02/05 (H8N4) (Influenza A virus …); test: as above
[14] = molecular target: recombinant soluble homotrimeric HA of A/Hong Kong/2108/03 (H9N2) (Influenza A virus A/HK/2108/2003(H9N2)); test: as above
[15] = molecular target: recombinant soluble homotrimeric HA of A/Hong Kong/1073/99 (H9N2) (Influenza A virus A/Hong Kong/1073/99 …); test: as above
[16] = molecular target: recombinant homotrimeric HA A/California/4/09 H1N1 (Influenza A virus …); test: protein microarray, purified IgG, trimeric HA
[17] = molecular target: recombinant homotrimeric HA A/Solomon Islands/3/06 H1N1 (Influenza A virus A/Solomon …); test: protein microarray, purified IgG, trimeric HA
[18] = molecular target: recombinant homotrimeric HA A/South Carolina/1/18 H1N1 (Influenza A virus A/South Carolina/1/18 …); test: protein microarray, purified IgG, trimeric HA
[19] = molecular target: recombinant homotrimeric HA A/Japan/305/57 H2N2 (Influenza A virus A/Japan/305/1957(H2N2)); test: protein microarray, purified IgG, trimeric HA
[20] = molecular target: recombinant homotrimeric HA A/Wisconsin/67/05 H3N2 (Influenza A virus …); test: protein microarray, purified IgG, trimeric HA
[21] = molecular target: recombinant homotrimeric HA A/swine/Ontario/01911-2/99 H4N6 (Influenza A virus …); test: protein microarray, purified IgG, trimeric HA
[22] = molecular target: recombinant homotrimeric HA A/Vietnam/1203/04 H5N1 (Influenza A virus …); test: protein microarray, purified IgG, trimeric HA
[23] = molecular target: recombinant homotrimeric HA A/Indonesia/5/05 H5N1 (Influenza A virus …); test: protein microarray, purified IgG, trimeric HA
[24] = molecular target: recombinant homotrimeric HA A/Egypt/3300-NAMRU3/08 H5N1 (Influenza A virus …); test: protein microarray, purified IgG, trimeric HA
[25] = molecular target: recombinant homotrimeric HA A/Anhui/1/05 H5N1 (Influenza A virus A/Anhui/1/2005(H5N1)); test: protein microarray, purified IgG, trimeric HA
[26] = molecular target: recombinant homotrimeric HA A/chicken/Vietnam/NCVD-016/08 H5N1 (Influenza A virus …); test: protein microarray, purified IgG, trimeric HA
[27] = molecular target: recombinant homotrimeric HA A/Hong Kong/156/97 H5N1 (Influenza A virus A/Hong Kong/156/97 …); test: protein microarray, purified IgG, trimeric HA
[28] = molecular target: recombinant homotrimeric HA A/northern shoveler/California/HKWF115/07 H6N4 (Influenza A virus A/northern …); test: protein microarray, purified IgG, trimeric HA
[29] = molecular target: recombinant homotrimeric HA A/Netherlands/219/03 H7N7 (Influenza A virus …); test: protein microarray, purified IgG, trimeric HA
[30] = molecular target: recombinant homotrimeric HA A/duck/Yangzhou/02/05 H8N4 (Influenza A virus …); test: protein microarray, purified IgG, trimeric HA
[31] = molecular target: recombinant homotrimeric HA A/Hong Kong/2108/03 H9N2 (Influenza A virus A/HK/2108/2003(H9N2)); test: protein microarray, purified IgG, trimeric HA
[32] = molecular target: recombinant homotrimeric HA A/Hong Kong/1073/99 H9N2 (Influenza A virus A/Hong Kong/1073/99 …); test: protein microarray, purified IgG, trimeric HA
[33] = molecular target: T1, hemagglutinin (HA) of influenza A/Japan/305/57 (H2N2) on whole virions (Influenza A virus A/Japan/305/1957(H2N2), UniProt P03451 16-562); test: ELISA, purified IgG on inactivated whole virions
[34] = molecular target: T1, hemagglutinin (HA) of influenza …; test: ELISA; BCC supernatant on coated inactivated whole virions
[35] = molecular target: recombinant soluble homotrimeric HA of A/California/4/09 (H1N1) (Influenza A virus …); test: HA microarray, BCC supernatant
[36] = molecular target: recombinant soluble homotrimeric HA of A/Solomon Islands/3/06 (H1N1) (Influenza A virus A/Solomon …); test: HA microarray, BCC supernatant
[37] = molecular target: recombinant soluble homotrimeric HA of A/Japan/305/57 (H2N2) (Influenza A virus A/Japan/305/1957(H2N2)); test: HA microarray, BCC supernatant
[38] = molecular target: recombinant soluble homotrimeric HA of A/Wisconsin/67/05 (H3N2) (Influenza A virus …); test: HA microarray, BCC supernatant
[39] = molecular target: recombinant soluble homotrimeric HA of A/swine/Ontario/01911-2/99 (H4N6) (Influenza A virus …); test: HA microarray, BCC supernatant
[40] = molecular target: recombinant soluble homotrimeric HA of A/Vietnam/1203/04 (H5N1) (Influenza A virus …); test: HA microarray, BCC supernatant
[41] = molecular target: recombinant soluble homotrimeric HA of A/Indonesia/5/05 (H5N1) (Influenza A virus …); test: HA microarray, BCC supernatant
[42] = molecular target: recombinant soluble homotrimeric HA of A/Egypt/3300-NAMRU3/08 (H5N1) (Influenza A virus …); test: HA microarray, BCC supernatant
[43] = molecular target: recombinant soluble homotrimeric HA of A/Anhui/1/05 (H5N1) (Influenza A virus A/Anhui/1/2005(H5N1)); test: HA microarray, BCC supernatant
[44] = molecular target: recombinant soluble homotrimeric HA of A/chicken/Vietnam/NCVD-016/08 (H5N1) (Influenza A virus …); test: HA microarray, BCC supernatant
[45] = molecular target: recombinant soluble homotrimeric HA of A/northern shoveler/California/HKWF115/07 (H6) (Influenza A virus A/northern …); test: HA microarray, BCC supernatant
[46] = molecular target: recombinant soluble homotrimeric HA of A/Netherlands/219/03 (H7N7) (Influenza A virus …); test: HA microarray, BCC supernatant
[47] = molecular target: recombinant soluble homotrimeric HA of A/duck/Yangzhou/02/05 (H8N4) (Influenza A virus …); test: HA microarray, BCC supernatant
[48] = molecular target: recombinant soluble homotrimeric HA of A/Hong Kong/2108/03 (H9N2) (Influenza A virus A/HK/2108/2003(H9N2)); test: HA microarray, BCC supernatant

B1: TCN-533 (5256_A17a) (antibody, V domains shown)
VH: QVQLVQSGADVKKPGSSVTVSCKASGGSFSNYGINWVRQAPGQGLEWMGGIIPLINAPNYAPKFQGRVTITADMFSNIVSLQLTSLRTDDTAVYYCARRKMTTAIDYWGQGTLVTVSS
VL: QPVLTQPPSASASLGASVTLTCTLSSAYSNYKVDWYQQRPGKGPRFVMRVGTGGIVGSKGDGIPDRFSVLGSGLNRYLTIKNIQEEDESDYHCGADHGSGSNFVSPYVFGGGTKLTVL
- Trimeric HA Binding: RLU [1]: 6880 RLU
- Trimeric HA Binding: RLU [2]: 15500 RLU
- Trimeric HA Binding: RLU [3]: 16400 RLU
- Trimeric HA Binding: RLU [4]: 18600 RLU
- Trimeric HA Binding: RLU [5]: 16100 RLU
- Trimeric HA Binding: RLU [6]: 11700 RLU
- Trimeric HA Binding: RLU [7]: 28300 RLU
- Trimeric HA Binding: RLU [8]: 18600 RLU
- Trimeric HA Binding: RLU [9]: 301 RLU
- Trimeric HA Binding: RLU [10]: 24600 RLU
- Trimeric HA Binding: RLU [11]: 7810 RLU
- Trimeric HA Binding: RLU [12]: 209 RLU
- Trimeric HA Binding: RLU [13]: 711 RLU
- Trimeric HA Binding: RLU [14]: 33 RLU
- Trimeric HA Binding: RLU [15]: 23800 RLU

B2: TCN-556 (5089_K12) (antibody, V domains shown)
VH: QVQLVQSGAEVKKPGASVKVSCKASGYTFIGYDMHWVRQAPGQGLEWMGWINAKRGGTNYAQKFQGRVTMTRDTSISTAYMELNSLRSDDTAVYYCARGVGSRTTIFGVLNPEFDYWGQGTLVTVSS
VL: QSALTQPPSASGSPGQSVTISCTGSSSDVGGYDYVSWYQQHPGKAPKLLIYEVTKRPSGVPDRFSGSKSGNTASLTVSGLQAEDEADYYCSSYAGNYNHVFGPGTKVTVL
- Trimeric HA Binding: RLU [16]: 25800 RLU
- Trimeric HA Binding: RLU [17]: 24300 RLU
- Trimeric HA Binding: RLU [18]: 21000 RLU
- Trimeric HA Binding: RLU [19]: 25800 RLU
- Trimeric HA Binding: RLU [20]: 2360 RLU
- Trimeric HA Binding: RLU [21]: 24100 RLU
- Trimeric HA Binding: RLU [22]: 21500 RLU
- Trimeric HA Binding: RLU [23]: 23000 RLU
- Trimeric HA Binding: RLU [24]: 24800 RLU
- Trimeric HA Binding: RLU [25]: 26900 RLU
- Trimeric HA Binding: RLU [26]: 22400 RLU
- Trimeric HA Binding: RLU [27]: 18600 RLU
- Trimeric HA Binding: RLU [28]: 25000 RLU
- Trimeric HA Binding: RLU [29]: 21000 RLU
- Trimeric HA Binding: RLU [30]: 18300 RLU
- Trimeric HA Binding: RLU [31]: 25600 RLU
- Trimeric HA Binding: RLU [32]: 995 RLU

B3: TCN-532 (5262_H18) (antibody, V domains shown)
VH: QVQLQESGPGLVKPSETLSLTCTVSGGSVSSETYYWSWIRQPPGKGLEWIGYIYYIGNTDYRPSLKSRVTISLDTSKNQFSLKLSSVTAADTAVYYCARGAYYDSSGYPAFYIWGQGTMVTVSS
VL: QSVLTQPPSVSGAPGQRVTISCTGSSSNIGSDYDVHWYKQLPGTAPKLLIFGNSNRPSGVPDRFSGSKSGTSASLAITGLQAEDEADYYCQSYDSSLSGFHVFGSGTKVTVL
- binding result [33]: no binding
- ELISA virus binding (OD450) [34]: 0.07 OD450

B4: TCN-533 (5256_A17a) (antibody, V domains shown)
VH: B1 VH
VL: B1 VL
- Trimeric HA Binding: RLU [35]: 29300 RLU
- Trimeric HA Binding: RLU [36]: 39200 RLU
- Trimeric HA Binding: RLU [37]: 10800 RLU
- Trimeric HA Binding: RLU [38]: 13800 RLU
- Trimeric HA Binding: RLU [39]: 1580 RLU
- Trimeric HA Binding: RLU [40]: 5680 RLU
- Trimeric HA Binding: RLU [41]: 44100 RLU
- Trimeric HA Binding: RLU [42]: 34300 RLU
- Trimeric HA Binding: RLU [43]: 8060 RLU
- Trimeric HA Binding: RLU [44]: 47700 RLU
- Trimeric HA Binding: RLU [45]: 41400 RLU
- Trimeric HA Binding: RLU [46]: 2470 RLU
- Trimeric HA Binding: RLU [47]: 24700 RLU
- Trimeric HA Binding: RLU [48]: 172 RLU
